Data: patent US20190309059A1 (SHANGHAI PHARMAEXPLORER, published 2019)
Where “and” joins values, the source holds several entries; their conditions need not be identical. Equal values may be shown once.

Experiments:
[1] = biological target: his-labeled human IL-13 (immunogen A) (human) (UniProt P35225); experiment: FACS blocking, biotin-IL-13 on IL-13Ra2 HEK293 cells; antibody at 6.67 nM
[2] = biological target: his-labeled human IL-13 (immunogen A) (human) (UniProt P35225); experiment: FACS blocking, biotin-IL-13 on IL-13Ra1/IL-4Ra HEK293 cells; antibody at 0.05 nM
[3] = biological target: cynomolgus IL-13 (purchased from sino biological) (cynomolgus) (UniProt Q0PW92); experiment: ELISA, cynomolgus IL-13; antibody at 0.11 nM
[4] = biological target: his-labeled human IL-13 (immunogen A) (human) (UniProt P35225); experiment: FACS blocking, biotin-IL-13 on IL-13Ra1/IL-4Ra HEK293 cells; antibody at 6.67 nM
[5] = biological target: his-labeled human IL-13 (immunogen A) (human) (UniProt P35225); experiment: cell-based or functional assay
[6] = biological target: cynomolgus IL-13 (purchased from sino biological) (cynomolgus) (UniProt Q0PW92); experiment: ELISA, cynomolgus IL-13; antibody at 0.004 nM
[7] = biological target: his-labeled human IL-13 (immunogen A) (human) (UniProt P35225); experiment: ELISA, biotin-immunogen A; antibody at 2.67 nM
[8] = biological target: his-labeled human IL-13 (immunogen A) (human) (UniProt P35225); experiment: FACS blocking, biotin-IL-13 on IL-13Ra2 HEK293 cells; antibody at 0.01 nM
[9] = biological target: his-labeled human IL-13 (immunogen A) (human) (UniProt P35225); experiment: FACS blocking, biotin-IL-13 on IL-13Ra2 HEK293 cells; antibody at 0.27 nM
[10] = biological target: his-labeled human IL-13 (immunogen A) (human) (UniProt P35225); experiment: FACS blocking, biotin-IL-13 on IL-13Ra2 HEK293 cells; antibody at 166.67 nM
[11] = biological target: his-labeled human IL-13 (immunogen A) (human) (UniProt P35225); experiment: FACS blocking, biotin-IL-13 on IL-13Ra1/IL-4Ra HEK293 cells; antibody at 1.33 nM
[12] = biological target: his-labeled human IL-13 (immunogen A) (human) (UniProt P35225); experiment: ELISA, biotin-immunogen A; antibody at 0.11 nM
[13] = biological target: his-labeled human IL-13 (immunogen A) (human) (UniProt P35225); experiment: FACS blocking, biotin-IL-13 on IL-13Ra1/IL-4Ra HEK293 cells; antibody at 0.01 nM
[14] = biological target: his-labeled human IL-13 (immunogen A) (human) (UniProt P35225); experiment: FACS blocking, biotin-IL-13 on IL-13Ra2 HEK293 cells; antibody at 0.05 nM
[15] = biological target: cynomolgus IL-13 (purchased from sino biological) (cynomolgus) (UniProt Q0PW92); experiment: ELISA, cynomolgus IL-13; antibody at 2.67 nM
[16] = biological target: his-labeled human IL-13 (immunogen A) (human) (UniProt P35225); experiment: FACS blocking, biotin-IL-13 on IL-13Ra2 HEK293 cells; antibody at 1.33 nM
[17] = biological target: his-labeled human IL-13 (immunogen A) (human) (UniProt P35225); experiment: ELISA, biotin-immunogen A; antibody at 0.02 nM
[18] = biological target: his-labeled human IL-13 (immunogen A) (human) (UniProt P35225); experiment: FACS blocking, biotin-IL-13 on IL-13Ra1/IL-4Ra HEK293 cells; antibody at 166.67 nM
[19] = biological target: his-labeled human IL-13 (immunogen A) (human) (UniProt P35225); experiment: FACS blocking, biotin-IL-13 on IL-13Ra1/IL-4Ra HEK293 cells; antibody at 0.27 nM
[20] = biological target: his-labeled human IL-13R130Q variant (human) (UniProt P35225); experiment: ELISA, IL-13R130Q variant; antibody at 0.53 nM
[21] = biological target: cynomolgus IL-13 (purchased from sino biological) (cynomolgus) (UniProt Q0PW92); experiment: ELISA, cynomolgus IL-13; antibody at 0.021 nM
[22] = biological target: his-labeled human IL-13 (immunogen A) (human) (UniProt P35225); experiment: FACS blocking, biotin-IL-13 on IL-13Ra2 HEK293 cells; antibody at 0.002 nM
[23] = biological target: his-labeled human IL-13 (immunogen A) (human) (UniProt P35225); experiment: FACS blocking, biotin-IL-13 on IL-13Ra1/IL-4Ra HEK293 cells; antibody at 0.002 nM
[24] = biological target: his-labeled human IL-13 (immunogen A) (human) (UniProt P35225); experiment: FACS blocking, biotin-IL-13 on IL-13Ra2 HEK293 cells; antibody at 33.33 nM
[25] = biological target: his-labeled human IL-13 (immunogen A) (human) (UniProt P35225); experiment: FACS blocking, biotin-IL-13 on IL-13Ra1/IL-4Ra HEK293 cells; antibody at 33.33 nM
[26] = biological target: cynomolgus IL-13 (purchased from sino biological) (cynomolgus) (UniProt Q0PW92); experiment: ELISA, cynomolgus IL-13; antibody at 0.53 nM

Chain of cynomolgus IL-13 (purchased from sino biological) (cynomolgus) (Q0PW92 entry or part of it): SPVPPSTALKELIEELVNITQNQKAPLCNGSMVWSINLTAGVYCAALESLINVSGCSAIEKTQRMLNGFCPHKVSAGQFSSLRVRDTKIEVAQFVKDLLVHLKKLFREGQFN
Chain of his-labeled human IL-13R130Q variant (human) (P35225 other isoform, or with tags, fused parts or gaps mutant): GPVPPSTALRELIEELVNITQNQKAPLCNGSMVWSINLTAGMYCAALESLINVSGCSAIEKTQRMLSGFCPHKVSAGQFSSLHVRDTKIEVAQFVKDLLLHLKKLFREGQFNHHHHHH

IgG control (mouse IgG) (antibody)
mean fluorescence intensity [1]: 77.2 | mean fluorescence intensity [2]: 68.9 | OD450 nm [3]: 0.07 | mean fluorescence intensity [4]: 27.7 | Periostin (pg/mL), MRCS cells + IL-13 5 ng/mL; control antibody at 0.0002 nM [5]: 6350 pg/mL | Periostin (pg/mL), MRCS cells + IL-13 5 ng/mL; control antibody at 0.001 nM [5]: 4760 pg/mL | Periostin (pg/mL), MRCS cells + IL-13 5 ng/mL; control antibody at 0.004 nM [5]: 4290 pg/mL | Periostin (pg/mL), MRCS cells + IL-13 5 ng/mL; control antibody at 0.021 nM [5]: 4010 pg/mL | Periostin (pg/mL), MRCS cells + IL-13 5 ng/mL; control antibody at 0.11 nM [5]: 3830 pg/mL | Periostin (pg/mL), MRCS cells + IL-13 5 ng/mL; control antibody at 0.53 nM [5]: 4920 pg/mL | Periostin (pg/mL), MRCS cells + IL-13 5 ng/mL; control antibody at 2.67 nM [5]: 5740 pg/mL | Periostin (pg/mL), MRCS cells + IL-13 5 ng/mL; control antibody at 13.3 nM [5]: 6240 pg/mL | TARC (pg/mL), A549 cells + IL-13 5 ng/mL + TNFα; control antibody at 0.001 nM [5]: 2010 pg/mL | TARC (pg/mL), A549 cells + IL-13 5 ng/mL + TNFα; control antibody at 0.004 nM [5]: 1720 pg/mL | TARC (pg/mL), A549 cells + IL-13 5 ng/mL + TNFα; control antibody at 0.021 nM [5]: 1740 pg/mL | TARC (pg/mL), A549 cells + IL-13 5 ng/mL + TNFα; control antibody at 0.11 nM [5]: 1650 pg/mL | TARC (pg/mL), A549 cells + IL-13 5 ng/mL + TNFα; control antibody at 0.5 nM [5]: 1640 pg/mL | TARC (pg/mL), A549 cells + IL-13 5 ng/mL + TNFα; control antibody at 2.7 nM [5]: 1720 pg/mL | TARC (pg/mL), A549 cells + IL-13 5 ng/mL + TNFα; control antibody at 13.3 nM [5]: 1800 pg/mL | TARC (pg/mL), A549 cells + IL-13 5 ng/mL + TNFα; control antibody at 66.7 nM [5]: 1870 pg/mL | TARC (pg/mL), A549 cells + IL-13 + TNFα; control antibody at 0.001 nM [5]: 3120 pg/mL | TARC (pg/mL), A549 cells + IL-13 + TNFα; control antibody at 0.001 nM (part 2, with hP4 4H12) [5]: 2920 pg/mL | TARC (pg/mL), A549 cells + IL-13 + TNFα; control antibody at 0.004 nM [5]: 2980 pg/mL | TARC (pg/mL), A549 cells + IL-13 + TNFα; control antibody at 0.004 nM (part 2, with hP4 4H12) [5]: 2560 pg/mL | TARC (pg/mL), A549 cells + IL-13 + TNFα; control antibody at 0.021 nM [5]: 3000 pg/mL | TARC (pg/mL), A549 cells + IL-13 + TNFα; control antibody at 0.021 nM (part 2, with hP4 4H12) [5]: 2580 pg/mL | TARC (pg/mL), A549 cells + IL-13 + TNFα; control antibody at 0.11 nM [5]: 2780 pg/mL | TARC (pg/mL), A549 cells + IL-13 + TNFα; control antibody at 0.11 nM (part 2, with hP4 4H12) [5]: 2570 pg/mL | TARC (pg/mL), A549 cells + IL-13 + TNFα; control antibody at 0.5 nM (part 2, with hP4 4H12) [5]: 2580 pg/mL | TARC (pg/mL), A549 cells + IL-13 + TNFα; control antibody at 0.53 nM [5]: 2840 pg/mL | TARC (pg/mL), A549 cells + IL-13 + TNFα; control antibody at 2.67 nM [5]: 2720 pg/mL | TARC (pg/mL), A549 cells + IL-13 + TNFα; control antibody at 2.7 nM (part 2, with hP4 4H12) [5]: 2790 pg/mL | TARC (pg/mL), A549 cells + IL-13 + TNFα; control antibody at 13.3 nM [5]: 2820 pg/mL | TARC (pg/mL), A549 cells + IL-13 + TNFα; control antibody at 13.3 nM (part 2, with hP4 4H12) [5]: 2870 pg/mL | TARC (pg/mL), A549 cells + IL-13 + TNFα; control antibody at 66.7 nM [5]: 2700 pg/mL | TARC (pg/mL), A549 cells + IL-13 + TNFα; control antibody at 66.7 nM (part 2, with hP4 4H12) [5]: 2920 pg/mL | VCAM-1 fluorescence intensity, HUVEC + IL-13 0.5 ng/mL + TNFα; control antibody at 0.0002 nM [5]: 347 | VCAM-1 fluorescence intensity, HUVEC + IL-13 0.5 ng/mL + TNFα; control antibody at 0.001 nM [5]: 369 | VCAM-1 fluorescence intensity, HUVEC + IL-13 0.5 ng/mL + TNFα; control antibody at 0.004 nM [5]: 373 | VCAM-1 fluorescence intensity, HUVEC + IL-13 0.5 ng/mL + TNFα; control antibody at 0.021 nM [5]: 369 | VCAM-1 fluorescence intensity, HUVEC + IL-13 0.5 ng/mL + TNFα; control antibody at 0.11 nM [5]: 340 | VCAM-1 fluorescence intensity, HUVEC + IL-13 0.5 ng/mL + TNFα; control antibody at 0.53 nM [5]: 302 | VCAM-1 fluorescence intensity, HUVEC + IL-13 0.5 ng/mL + TNFα; control antibody at 2.67 nM [5]: 354 | VCAM-1 fluorescence intensity, HUVEC + IL-13 0.5 ng/mL + TNFα; control antibody at 13.3 nM [5]: 341 | OD450 nm [6]: 0.07 | OD450 nm [7]: 0.08 | mean fluorescence intensity [8]: 83.2 | mean fluorescence intensity [9]: 78.9 | mean fluorescence intensity [10]: 77 | mean fluorescence intensity [11]: 37.5 | OD450 nm [12]: 0.07 and 0.05 | mean fluorescence intensity [13]: 72.4 | mean fluorescence intensity [14]: 81.3 | OD450 nm [15]: 0.06 | mean fluorescence intensity [16]: 80.7 | OD450 nm [17]: 0.07 | mean fluorescence intensity [18]: 17.1 | mean fluorescence intensity [19]: 67.9 | OD450 nm [20]: 0.06 | OD450 nm [21]: 0.07 | mean fluorescence intensity [22]: 79.3 | mean fluorescence intensity [23]: 72 | mean fluorescence intensity [24]: 82.7 | mean fluorescence intensity [25]: 22.1 | OD450 nm [26]: 0.09
